Laboratory results from patent US20240252641A1 (TCR2 THERAPEUTICS, published 2024).

T1: CD70 on cells (CHO-CD70, JVM-3, U266, Raji, THP-1, T cells) (human, UniProt P32970 1-193)
T1 construct: whole, on cells; also called cell-surface CD70
T1 sequence (looked up): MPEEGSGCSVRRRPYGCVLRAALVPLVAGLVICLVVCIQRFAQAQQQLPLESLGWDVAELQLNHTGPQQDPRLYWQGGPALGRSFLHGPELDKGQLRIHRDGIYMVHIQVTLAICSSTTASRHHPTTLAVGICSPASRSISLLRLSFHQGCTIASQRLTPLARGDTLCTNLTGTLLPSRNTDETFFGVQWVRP

T2: human CD70, recombinant, N-terminally biotinylated (residues 39-193) (human, UniProt P32970 39-193, N-terminal biotin)
T2 construct: range 39-193; the same entry is used there; also called biotinylated human CD70; CD70 biotin
T2 sequence (looked up): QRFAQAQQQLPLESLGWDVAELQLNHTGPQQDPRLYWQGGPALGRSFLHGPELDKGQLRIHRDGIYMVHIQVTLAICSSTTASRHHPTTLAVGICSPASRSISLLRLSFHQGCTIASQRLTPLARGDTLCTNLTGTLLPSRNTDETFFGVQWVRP


Key:
[1] = biological target: T1, CD70 on cells (CHO-CD70, JVM-3, U266, …); assay: 1.25 µg/mL scFv on U266 cells
How it was run: (§1)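 Panning of a naïve human library against the CD70 extracellular domain (aa39-193) yielded human scFv antibodies. Binding to high-CD70 (CHO-CD70, JVM3, U266) and low-CD70 (CHO WT, K562) tumour cell lines was recorded line by line.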

[2] = biological target: T2, human CD70, recombinant, N-terminally …; assay: CD27 blocking ELISA, 3 µM scFv, strep/HRP
[3] = biological target: T1, CD70 on cells (CHO-CD70, JVM-3, U266, …); assay: 1.25 µg/mL scFv on CHO-CD70 cells
How it was run: as §1

[4] = biological target: T1, CD70 on cells (CHO-CD70, JVM-3, U266, …); assay: 1.25 µg/mL scFv on JVM-3 cells
How it was run: as §1

[5] = biological target: T2, human CD70, recombinant, N-terminally …; assay: SPR
How it was run: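 Human scFv antibodies came from panning a naïve human library against the CD70 extracellular domain (aa39-193). Their affinity (Kd) for recombinant, N-terminally biotinylated human CD70 was measured by surface plasmon resonance (SPR) analysis.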

[6] = biological target: T2, human CD70, recombinant, N-terminally …; assay: CD27 blocking ELISA, 3 µM scFv, anti-His/HRP
Procedure: Human scFv antibodies binding CD70 were generated by panning a naïve human library with the extracellular domain (aa39-193) of CD70. 53 antibodies were identified. The ability of CD27 to block CD70 binding of the identified antibodies was measured by ELISA using two different assays. In the first assay, CD27 and his-tagged scFv anti-CD70 binders were simultaneously added to surface bound CD70, and the ability of the scFv binders to bind CD70 was detected with anti-His HRP. In the second assay, plate-bound CD70 was pre-incubated with CD27 for 30 minutes, and then additional CD27 and the his-tagged scFv anti-CD70 binder was added. The ability of the scFv binders to bind CD70 was detected with anti-His HRP. FIG. 34 is a schematic of the two different CD27 blocking assays. CD70 affinity was also measured by SPR analysis. scFv antibodies were also tested for their ability to bind tumor cell lines with high (CHO-CD70, JVM3, and U266) and low levels (CHO WT and K562 of CD70 expression. Results for 39 antibodies are shown in Table 1 below.

Binder | cell binding [1] | strep/HRP [2] | cell binding [3] | cell binding [4] | Kd [5] [nM] | anti His/HRP [6]
61-TC7-IV-H08 (scFv, His-tagged) scFv: QMQLVQSGGGLVQPGRSLRLSCAASGFTFDDYAMHWVRQAPGKGLEWVAVISYDGSNKYYADSVKGRFTISRDNSKNTLYLQMNSLRAEDTAVYYCARSSYDFWSGYPKDMDVWGKGTTVTVSSGGSGGSGGSGGSSSELTQDPAVSVALGQTVRITCQGDSLRSYYASWYQQKPGQAPVLVIYGKNNRPSGIPDRFSGSSSGNTASLTITGAQAEDEADYYCNSRDSSGNHLVVFGGGTKLTVL | 947 | 1.52 | 64900 | 1070 | 332 | 0.711
57-TC7-VII-A03 (scFv, His-tagged) scFv: QVQLQQSGPGLVKASETLSLTCAVSGHSISSSNYWGWIRQPPGKGLEWIGSIYHSGTTYYNPSLKSRVTMSVDTSKNQFSLKLSSVTAADTAVYYCARHGSGDLGYLEYWGQGTLVTVSSGGSGGSGGSGGSSYELTQSPSVSVAPGKTARITCGGNNIGSKSVHWYQQKPGQAPVLVIYYDSDRPSGIPERFSGSNSGNTATLTISRVEAGDEADYYCQVWDSSSDHPVFGGGTKVTVL | 3150 | 1.49 | 163000 | 1640 | 853 | 1.89
38-TC7-V-G06 (scFv, His-tagged) scFv: QMQLVQSGAEVKKPGSSVKVSCKASGGTFSSYAISWVRQAPGQGLEWMGWISAYNGNTNYAQKLQGRVTMTTDTSTSTAYMELRSLRSDDTAVYYCARDDYWGQGTLVTVSSGGSGGSGGSGGSSYELTQPPSVSVAPGKTARITCSGDVLGENYADWYQQKPGQAPELVIYEDSERYPGIPERFSGSTSGNTTTLTISRVLTEDEADYYCLSGDEDNRVFGGGTKLTVL | 16900 | 1.53 | 1.34e+06 | 27400 | 182 | 1.02
15-TC7-I-D07 (scFv, His-tagged) scFv: QVQLQQWGAGLLKPSETLSLTCAVYGGSFSGYYWSWIRQPPGKGLEWIGEINHSGSTNYNPSLKSRVTISVDTSKNQFSLKLSSVTAADTAVYYCARVSRSRGAFDIWGQGTMVTVSSGGSGGSGGSGGSQSALTQPASVSGSPGQSITISCTGTNSDVGAYNYVSWYQQHPGKAPKLMIYEVTNRPSGVSNRFSGSKSGNTASLTISGLQAEDEADYYCSSYTSSGTWVFGGGTKLTVL | 42900 | 1.45 | 271000 | 50900 | 1750 | 2.5
62-TC7-V-D08 (scFv, His-tagged) scFv: QVQLQQWGAGLLKPSETLSLTCAVYGGSFSGYYWSWIRQPPGKGLEWIGEINHSGSTNYNPSLKSRVTISVDTSKNQFSLKLSSVTAADTAVYYCARVARGKGAFDIWGQGTMVTVSSGGSGGSGGSGGSQSALTQPASVSGSPGQSITISCTGTSSDVGGYNYVSWYQQHPGKAPKLLIYEVSSRPSGVSNRFSGSKSGNTASLTISGLQAEDEADYYCNSYTNSGSWVFGGGTKVTVL | 35300 | 1.54 | 286000 | 45200 | 194 | 2
54-TC7-V-D10 (scFv, His-tagged) scFv: QVQLQQWGAGLLKPSETLSLTCAVYGGSFSGYYWSWIRQPPGKGLEWIGEINHSGSTNYNPSLKSRVTISVDTSKNQFSLKLSSVTAADTAVYYCARGGYRSYWYFDLWGRGTLVTVSSGGSGGSGGSGGSQSALTQPASVSGSPGQSITISCTGTSSDVGGYNSVSWYQHHPGKAPKLMIYDVSDRPSGVSDRFSGSKSGNTASLTISGLQAEDEADYYCSSYAGSNNVVFGGGTKVTVL | 1140 | 1.17 | 240000 | 2130 | 209 | 1.46
